Test results taken from patent US20240016847A1 (TRUSTEES OF COLUMBIA UNIVERSITY IN THE CITY OF NEW YORK, published 2024).

Tests used:
[1] = target: sfGFP linked to the PlGF123-144 peptide sequence with a flexible glycine-serine linker at the C-terminus …; experiment: cell-based or functional assay
[2] = target: sfGFP with a cysteine substitution at position D117 (D117C synthetic antigen) (Aequorea victoria (Water jellyfish) …, UniProt P42212 2-238 = GFP); experiment: cell-based or functional assay

B1: GFP specific ProCAR construct (GFP28z): sfGFP-binding nanobody, IgG4 hinge, CD28 transmembrane and intracellular domains, CD3zeta signaling domain (receptor)
chain: QVQLQESGGGSVQAGGSLKLSCAASGGAYRNACMGWFRQAPGKEREGVAIINSVDTTYYADPVKGRFTISRDNAKSTVYLLMNSLKPEDTAIYYCAQVARVVCPGDKLGASGYNYWGQGTQVTVSSGSESKYGPPCPCPAFWVLVVVGGVLACYSLLVTVAFIIFWVRSKRSRLLHSDYMNMTPRRPGPTRKHYQPYAPPRDFAAYRSLRVKFSRSADAPAYQQGQNQLYNELNLGRREEYDVLDKRRGRDPEMGGKPRRKNPQEGLYNELQKDKMAEAYSEIGMKGERRRGKGHDGLYQGLSTATKDTYDALHMQALPPR
For B1, the “SA-driven fold expansion of GFP28z” value [1] was 8 fold, the “viability of GFP28z T cells after 24 hr with 500 ng/mL PlGF-SA, relative to untreated controls” value [1] was ~72 % of untreated controls and the “SA-driven fold expansion of GFP28z” value [2] was 8 fold.
